# Measurements reported in patent US9713649 (CLEVELAND CLINIC FOUNDATION, dated 2017).
# Primed or numbered codes have the meaning given here. Where no end group is shown, it is not given here. [ ]: non-standard residue; d: D form. The star is where a group is joined. MCC = 4-(N-maleimidomethyl)cyclohexane-1-carbonyl, from SMCC, O=C1C=CC(=O)N1C[C@H]1CC[C@H](C(=O)*)CC1; NOTA(2S-Bn(4-NHCS)) = O=C(O)CN1CCN(CC(=O)O)C[C@H](Cc2ccc(NC(=S)*)cc2)N(CC(=O)O)CC1; Amc = N-aminomethyl cyclohexanoic acid; ZJ = urea ligand Cys-C(O)-Glu; Ahx = NCCCCCC(=O)O; E′E = Glu-urea-Glu
# B1: ZJ-MCC-Ahx-YYYG (Compound 2) (peptide)
# peptide: {ZJ-MCC}-[Ahx]YYYG
# notes: Synthetic urea-ligand peptide conjugate, unlabelled
# B2: E′EAmc-Ahx-dEdEdEYK(Bn-NOTA)-NH2 (Compound 4) (peptide)
# peptide: {E′E-Amc}-[Ahx][dE][dE][dE]YK(NOTA(2S-Bn(4-NHCS)))-NH2
# notes: Tested unlabelled; also called E′EAmc-Ahx-dGlu-dGlu-dGlu-Tyr-Lys(Bn-NOTA)-NH2
# B3: E′E-Ahx-EEEYK(Bn-NOTA)-NH2 (Compound 5) (peptide)
# peptide: {E′E}-[Ahx]EEEYK(NOTA(2S-Bn(4-NHCS)))-NH2
# notes: Tested unlabelled; also called E′E-Ahx-Glu-Glu-Glu-Tyr-Lys(Bn-NOTA)-NH2
# Biological target: T1, Prostate specific membrane antigen (PSMA) (UniProt Q04609 1-750, limits assumed)
# T1 construct: whole, on cells
# T1 sequence (Q04609 whole entry): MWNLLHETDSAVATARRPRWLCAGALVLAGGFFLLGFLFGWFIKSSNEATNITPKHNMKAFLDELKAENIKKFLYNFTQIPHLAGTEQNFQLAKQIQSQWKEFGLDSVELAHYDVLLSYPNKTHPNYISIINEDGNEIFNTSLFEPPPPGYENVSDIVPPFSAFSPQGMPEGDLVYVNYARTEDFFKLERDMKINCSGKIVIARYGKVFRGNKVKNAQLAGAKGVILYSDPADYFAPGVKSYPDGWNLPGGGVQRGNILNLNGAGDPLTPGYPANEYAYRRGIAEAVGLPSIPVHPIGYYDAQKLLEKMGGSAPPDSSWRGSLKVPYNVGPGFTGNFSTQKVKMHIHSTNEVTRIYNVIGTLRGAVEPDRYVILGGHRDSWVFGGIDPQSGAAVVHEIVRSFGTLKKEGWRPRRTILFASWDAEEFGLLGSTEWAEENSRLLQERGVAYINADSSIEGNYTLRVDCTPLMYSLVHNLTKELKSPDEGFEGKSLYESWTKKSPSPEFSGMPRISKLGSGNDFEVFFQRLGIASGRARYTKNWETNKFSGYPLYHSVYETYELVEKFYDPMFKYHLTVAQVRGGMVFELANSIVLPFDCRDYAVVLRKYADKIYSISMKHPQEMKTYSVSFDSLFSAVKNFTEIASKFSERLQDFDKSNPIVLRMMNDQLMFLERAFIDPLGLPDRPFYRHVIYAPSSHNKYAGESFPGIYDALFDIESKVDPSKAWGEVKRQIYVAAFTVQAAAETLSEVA
# Assay: competitive binding on LNCaP or PC3-PIP cells; displacement of 12 nM N-[N-[(S)-1,3-dicarboxypropyl]carbamoyl]-S-[3H]-methyl-L-cysteine, scintillation counting
# Procedure: Briefly, LNCaP or PC3-PIP cells (5×10^5) were incubated with different concentrations of ligands in the presence of 12 nM N—[N—[(S)-1,3-dicarboxypropyl]carbamoyl]-S-[^3H]-methyl-L-cysteine in a total volume of 300 µL for 1 hour at 37° C. The mixture was centrifuged at 3,000 g for 5 min at 4° C., then washed three times with 500 µL of cold PBS. Finally, 4 mL of EcoLume™ cocktail (MP Biomedicals) was added, and radioactivity was counted by scintillation counter. The concentration required to inhibit 50% of binding was determined (IC$50$) by GraphPad Prism 3.0.
# Binding affinities of new compounds to PSMA.
row,Binder,IC50 [nM]
1,B1,2.5
2,{E′E-Amc}-[Ahx][dE][dE][dE]GYGGGC-NH2 [E′EAmc-Ahx-dEdEdEGYGGGC-NH2 (Compound 3)],7
3,B2,4.6
4,B3,4.3
